{
  "source": "the DeepSol protein solubility set",
  "data": [
    {"assay": "soluble on expression in E. coli; label from the status in PepcDB or PDB records", "values": [
      {"sequence": "MARSLLLPLQILLLSLALETAGEEAQGDKIIDGAPCARGSHPWQVALLSGNQLHCGGVLVNERWVLTAAHCKMNEYTVHLGSDTLGDRRAQRIKASKSFRHPGYSTQTHVNDLMLVKLNSQARLSSMVKKVRLPSRCEPPGTTCTVSGWGTTTSPDVTFPSDLMCVDVKLISPQDCTKVYKDLLENSMLCAGIPDSKKNACNGDSGGPLVCRGTLQGLVSWGTFPCGQPNDPGVYTQVCKFTKWINDTMKKHR", "soluble on expression in E. coli": "soluble"},
      {"sequence": "MARSRRDKNVSLTKVKKKTKDTKNNLVNEVRASVDQYKNLFIFTIANMRSTRFIAIRQKYKENSRFFFGKNNVISIALGKQKSDEYANQLHKASAILKGQCGLMFTNMSKKEVEAEFSEASEEDYARVGDVATETVVLPEGPISQFAFSMEPQLRKLGLPTKLDKGVITLYQQFEVCKEGEPLTVEQAKILKHFEVKMSQFRLIFKAHWNKKDGFKELDA", "soluble on expression in E. coli": "not soluble"},
      {"sequence": "MARTIPVLEIFGPTIQGEGMVIGQKTMFVRTAGCDYRCRWCDSAFTWDGSAKDEIEQLTADEIWRRLEAIGGRRFRHVTISGGNPLLIAALGELIALLHEKGMRVAVETQGSRWQDWLLDIDDVTLSPKPPSSGMDTDWSALDQIIERLQADQSRVRRISLKVVVFDDADLAYAKEVHCRYPGVPFYLQTGNADVADSDVDALRAKLLSRLEWLVEQAADSEELADVHILPQLHTLLWGNKRGV", "soluble on expression in E. coli": "not soluble"},
      {"sequence": "MASANNQNKFLDPRERGNILNYLKVCLLLARAVRRMHAAGLCHSDLSYKNVLIDPEQGHACIIDVDGLVVPGKFPPDVVGTPDFIAPEVVKTSHLLKEDPQRILPNITTDRHALSVLIYMYLFYRHPLRGGKIHDMDDEVRDESLAMGERALFIEHPTDRSNAVKLNQVKPSSLPWADPQKVPYTIMGPYLTQLFEKAFIDGLHDPSKRPTADEWETALVKTVDLIQPCQNTACEQKWYVFSGKTKPVCPYCLEHHHHHH", "soluble on expression in E. coli": "soluble"},
      {"sequence": "MASANSVIEGDLFKQKGASTFFNEGDINSSEGTIKHIYGLIIGTSNVSSSGTFATVNLTAGNKTGMTEFSLSNVLISDINSKSVPYTVTNATVLIDTAPVIDPICCPKSVDEKSKLAFKISAKDADGDRLTLSASGLPEGASFNRTSGAFAWTPAVGQTGVYTIAFKVSDGYLTDSENVTVTVNKLNNPPVIDFFEPINGSSFSEGERIGISVNATDAEKQALNYSIKIDGVMYSSDPAYIWETDYSSSGNHTIEVSVSDGIDEAKMQHSIYISECHPRYDVNEDGVVNILDITNVSREYETTVSKPYPRYDTNQDGEINILDLTLVGHHFGEKVELEHHHHHH", "soluble on expression in E. coli": "not soluble"},
      {"sequence": "MASASRLPPLPALRDFIHMYRLRAKKILSQNYLMDMNITRKIAKHAKVIEKDWVIEIGPGPGGITRAILEAGASRLDVVEIDNRFIPPLQHLAEAADSRMFIHHQDALRTEIGDIWKNETARPESVDWHDSNLPAMHVIGNLPFNIASPLIIKYLRDMSYRRGVWQYGRVPLTLTFQLEVAKRLCSPIACDTRSRISIMSQYVAEPKMVFQISGSCFVPRPQVDVGVVRFVPRKTPLVNTSFEVLEKVCRQVFHYRQKYVTKGLKTLYPEELEDELSDDLLKKCRIDPTTTSIRLGIEQFADLAEGYNEQCIRYPGLFLYDYTNKLHNLEDLSKEPNALPPPVPIFAPAPTIDSADNTWSLKNFNCS", "soluble on expression in E. coli": "not soluble"},
      {"sequence": "MASAVGEKMLDDFEGVLNWGSYSGEGAKVSTKIVSGKTGNGMEVSYTGTTDGYWGTVYSLPDGDWSKWLKISFDIKSVDGSANEIRFMIAEKSINGVGDGEHWVYSITPDSSWKTIEIPFSSFRRRLDYQPPGQDMSGTLDLDNIDSIHFMYANNKSGKFVVDNIKLIGALEHHHHHH", "soluble on expression in E. coli": "soluble"},
      {"sequence": "MASGAGGVGGGGGGKIRTRRCHQGPIKPYQQGRQQHQGILSRVTESVKNIVPGWLQRYFNKNEDVCSCSTDTSEVPRWPENKEDHLVYADEESSNITDGRITPEPAVSNTEEPSTTSTASNYPDVLTRPSLHRSHLNFSMLESPALHCQPSTSSAFPIGSSGFSLVKEIKDSTSQHDDDNISTTSGFSSRASDKDITVSKNTSLPPLWSPEAERSHSLSQHTATSSKKPAFNLSAFGTLSPSLGNSSVLKTSQLGDSPFYPGKTTYGGAAAAVRQSKLRNTPYQAPVRRQMKAKQLSAQSYGVTSSTARRILQSLEKMSSPLADAKRIPSIVSSPLNSVDSQYPPVQRLMTPKPVSIATNRSVYFKPSLTPSGEFRKTNQRIDKKCSTGYEKNMTPGQNREQRESGFSYPNFSLPAANGLSSGVGGGGGKMRRERTRFVASKPLEEEEMEVPVLPKISLPITSSSLPTFNFSSPEITTSSPSPINSSQALTNKVQMTSPSSTGSPMFKFSSPIVKSTEANVLPPSSIGFTFSVPVAKTAELSGSSSTLEPIISSSAHHVTTVNSTNCKKTPPEDCEGPFRPAEILKEGSVLDILKSPGFASPKIDSVAAQPTATSPVVYTRPAISSFSSSGIGFGESLKAGSSWQCDTCLLQNKVTDNKCIACQAAKLSPRDTAKQTGIETPNKSGKTTLSASGTGFGDKFKPVIGTWDCDTCLVQNKPEAIKCVACETPKPGTCVKRALTLTVVSESAETMTASSSSCTVTTGTLGFGDKFKRPIGSWECSVCCVSNNAEDNKCVSCMSEKPGSSVPTSSSSTVPVSLPSGGSLGLEKFKKPEGSWDCELCLVQNKADSTKCLACESAKPGTKSGFKGFDTSSSSSNSAASSSFKFGVSSSSSGPSQTLTSTGNFKFGDQGGFKIGVSSDSGSINPMSEGFKFSKPIGDFKFGVSSESKPEEVKKDSKNDNFKFGLSSGLSNPVSLTPFQFGVSNLGQEEKKEELPKSSSAGFSFGTGVINSTPAPANTIVTSENKSSFNLGTIETKSASVAPFTCKTSEAKKEEMPATKGGFSFGNVEPASLPSASVFVLGRTEEKQQEPVTSTSLVFGKKADNEEPKCQPVFSFGNSEQTKDENSSKSTFSFSMTKPSEKESEQPAKATFAFGAQTSTTADQGAAKPVFSFLNNSSSSSSTPATSAGGGIFGSSTSSSNPPVATFVFGQSSNPVSSSAFGNTAESSTSQSLLFSQDSKLATTSSTGTAVTPFVFGPGASSNNTTTSGFGFGATTTSSSAGSSFVFGTGPSAPSASPAFGANQTPTFGQSQGASQPNPPGFGSISSSTALFPTGSQPAPPTFGTVSSSSQPPVFGQQPSQSAFGSGTTPNSSSAFQFGSSTTNFNFTNNSPSGVFTFGANSSTPAASAQPSGSGGFPFNQSPAAFTVGSNGKNVFSSSGTSFSGRKIKTAVRRRK", "soluble on expression in E. coli": "soluble"},
      {"sequence": "MASGKRKGLSFDDKKTRLLELFNETCDFYTLKELEKIAPKLKGIITQSVKDVLQSLVDDDLVNSDKCGVQTIYWCLPSEAVAKRQRRLDALQQQLAEKRQKLTALQRQLVQVQAGREDSVERTAVLERLAACEAAWRERQRTLESYLECDPDVLAQRETETKTLIEQANRWTDNLYVIRSYVQRNLGVDLDLFDQQFELKPALQYLE", "soluble on expression in E. coli": "not soluble"},
      {"sequence": "MASKGAARVRKKEIVKVVHGALLRTNIKAQMASAAPPLGPQLGQRGLNVANFCKEFNKETGHFKQGVPLPTRITVKPDRTYDLEICTPTTTWLLKQAAGIGRGKASKDEIVGKLTVKHLYEIAKIKSRDKALQHVPLEQICRMLIKTCRTLGIDVQYHDLDPVELKEFLVARKEKVDAQLKDLADKKAAKMLRTT", "soluble on expression in E. coli": "not soluble"},
      {"sequence": "MASKYAVKLQTDFDNPKWIKRHKFMFDYLDINGNGQITLDEIVSKASDDICKNLGATPAQTQRHQDCVEAFFRGCGLEYGKETKFPEFLEGWKNLANADLAKWARNEPTLIREWGDAVFDIFDKDGSGTITLDEWKAYGRISGISPSEEDCEKTFQHCDLDNSGELDVDEMTRQHLGFWYTLDPEADGLYGNGVP", "soluble on expression in E. coli": "soluble"},
      {"sequence": "MASLPILTVLEQSQVSPPPDTLGDKSLQLTFFDFFWLRSPPINNLFFYELPITRSQFTETVVPNIKHSLSITLKHFYPFVGKLVVYPAPTKKPEICYVEGDSVAVTFAECNLDLNELTGNHPRNCDKFYDLVPILGESTRLSDCIKIPLFSVQVTLFPNQGIAIGITNHHCLGDASTRFCFLKAWTSIARSGNNDESFLANGTRPLYDRIIKYPMLDEAYLKRAKVESFNEDYVTQSLAGPSDKLRATFILTRAVINQLKDRVLAQLPTLEYVSSFTVACAYIWSCIAKSRNDKLQLFGFPIDRRARMKPPIPTAYFGNCVGGCAAIAKTNLLIGKEGFITAAKLIGENLHKTLTDYKDGVLKDDMESFNDLVSEGMPTTMTWVSGTPKLRFYDMDFGWGKPKKLETVSIDHNGAISINSCKESNEDLEIGVCISATQMEDFVHIFDDGLKAYL", "soluble on expression in E. coli": "soluble"},
      {"sequence": "MASLSRALRVAAAHPRQSPTRGMGPCNLSSAAGPTAEKSVPYQRTLKEGQGTSVVAQGPSRPLPSTANVVVIGGGSLGCQTLYHLAKLGMSGAVLLERERLTSGTTWHTAGLLWQLRPSDVEVELLAHTRRVVSRELEEETGLHTGWIQNGGLFIASNRQRLDEYKRLMSLGKAYGVESHVLSPAETKTLYPLMNVDDLYGTLYVPHDGTMDPAGTCTTLARAASARGAQVIENCPVTGIRVWTDDFGVRRVAGVETQHGSIQTPCVVNCAGVWASAVGRMAGVKVPLVAMHHAYVVTERIEGIQNMPNVRDHDASVYLRLQGDALSVGGYEANPIFWEEVSDKFAFGLFDLDWEVFTQHIEGAINRVPVLEKTGIKSTVCGPESFTPDHKPLMGEAPELRGFFLGCGFNSAGMMLGGGCGQELAHWIIHGRPEKDMHGYDIRRFHHSLTDHPRWIRERSHESYAKNYSVVFPHDEPLAGRNMRRDPLHEELLGQGCVFQERHGWERPGWFHPRGPAPVLEYDYYGAYGSRAHEDYAYRRLLADEYTFAFPPHHDTIKKECLACRGAAAVFDMSYFGKFYLVGLDARKAADWLFSADVSRPPGSTVYTCMLNHRGGTESDLTVSRLAPSHQASPLAPAFEGDGYYLAMGGAVAQHNWSHITTVLQDQKSQCQLIDSSEDLGMISIQGPASRAILQEVLDADLSNEAFPFSTHKLLRAAGHLVRAMRLSFVGELGWELHIPKASCVPVYRAVMAAGAKHGLINAGYRAIDSLSIEKGYRHWHADLRPDDSPLEAGLAFTCKLKSPVPFLGREALEQQRAAGLRRRLVCFTMEDKVPMFGLEAIWRNGQVVGHVRRADFGFAIDKTIAYGYIHDPSGGPVSLDFVKSGDYALERMGVTYGAQAHLKSPFDPNNKRVKGIY", "soluble on expression in E. coli": "not soluble"},
      {"sequence": "MASNEARYVLAEEVDFSSPEEVKNWWNSGTWQAEFGSPDIEWNGEVGNGALQLNVKLPGKSDWEEVRVARKFERLSECEILEYDIYIPNVEGLKGRLRPYAVLNPGWVKIGLDMNNANVESAEIITFGGKEYRRFHVRIEFDRTAGVKELHIGVVGDHLRYDGPIFIDNVRLYKRTGGM", "soluble on expression in E. coli": "soluble"},
      {"sequence": "MASNEKTRYKAIIADHTYTIIGQESKQHMDLVTKIVNEQLAEIKHLSPQTDTEQASVLLAINAISDQLKKQEYALKLEKQVADLKQKTIRLAELENRVRRMEIIEEEARDVLKKNGQEDVEIHNHVEAQQILNENRKQQIQNKGVSE", "soluble on expression in E. coli": "not soluble"},
      {"sequence": "MASNSRSSISPWTFSQNKMFERALAVYDKDTPDRWHNVAKAVGGKTVEEVKRHYDILVEDLINIETGRVPLPNYKTFESNSRSINDFDTRYITKYLYMMLSIYFDNHSSDFEKFSQKVLVSYISLV", "soluble on expression in E. coli": "soluble"},
      {"sequence": "MASNYNSGLKIGAWVGTQPSESAIKSFQELQGRKLDIVHQFINWSTDFSWVRPYADAVYNNGSILMITWEPWEYNTVDIKNGKADAYITRMAQDMKAYGKEIWLRPLHEANGDWYPWAIGYSSRVNTNETYIAAFRHIVDIFRANGATNVKWVFNVNCDNVGNGTSYLGHYPGDNYVDYTSIDGYNWGTTQSWGSQWQSFDQVFSRAYQALASINKPIIIAEFASAEIGGNKARWITEAYNSIRTSYNKVIAAVWFHENKETDWRINSSPEALAAYREAIGALEHHHHHH", "soluble on expression in E. coli": "soluble"},
      {"sequence": "MASQEFQGFLDSSLLNEEDCRQMIYRSEREHDARMVGVNVDQHFTSQYRKVLTTWMFCVCKDLRQDNNVFPLAVALLDELFLSTRIDRENYQSTAAVALHIAGKVRAYMPIKATQLAYLCGGATTADKLLTLEVKSLDTLSWVADRCLSTDLICYILHIMHAPREDYLNIYNLCRPKIFCALCDGRSAMKRPVLITLACMHLTMNQKYDYYENRIDGVCKSLYITKEELHQCCDLVDIAIVSFDENYFKINA", "soluble on expression in E. coli": "soluble"}
    ]}
  ]
}
